Experiment: yeast display, Sf9 membrane polyspecificity reagent, FACS + sequencing; frameworks hold sequencing errors
Summary of the method: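 Genes from sorted yeast were amplified by colony PCR, read by MiSeq 2 × 250 sequencing and filtered on CDR length. These cells carried a synthetic nanobody library in Saccharomyces cerevisiae BJ5465 and were sorted by FACS into low and high (top ~1%) gates on anti-HA and streptavidin fluorescence. Polyreactivity is labelled according to the gate of origin.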

Sequence | polyreactivity (PSR sort gate)
QVQLVESGGGLVQAGGSLRLSCAASGLTLAWYAMGWYRQAPGKERELVAAISWSGDSTYYADSVKGRFTISRDNAKNTVYLQMNSLKPEDTAVYYCATRVYGGYGYWGQGTQVTVSS | high polyreactivity
QVQIVESGGGLVQAGGSLRLSCAPSGRTFVGFAKGWYRQAPGKERELVAAISRTGGSTYYADSVKGRFTISRDNAKNTVYLQMNSLKPEDTAVYYCNAVTLSSTYGGHDYWGQGTQVTVSS | high polyreactivity
QVQHVESGGGLVQAGGSLRLSCAASGFIFYIYAMGWYRQAPGKERELVAAITSGGSTYYADSVKGRFTISRDNAKNTVYFQMNSLKPEDTAVFYCNRRSGHVHEYDYWGQGTQVTVSS | low polyreactivity
QVQLVESGGGLVQAGGSLRLSCAASGFIFYRYAMGWYRQAPGKERELVAAISYSGGSTYYADSVKGRFTISRDNAKNTVYLQMNSLKPEDTAVYYCAAGSKYRYDYWGQGTQVTVSS | high polyreactivity
QVQLVESGGGLVQAGGSLRLSCAASGLIYVGNAMGWYRQAPGKERELVAAISSRGGRTYYADSVKGRFTISRDNAKNSVYLQMNSLKPEDSAVYYCNAANSQWGFEYWGQGTQVTVSS | high polyreactivity
QVQLVESGGGLVQAGGSLRLSCAASGFIYPRNTMGWYRQAPGKERELVAAITWIGGRTYYADSVKGRFTISRDNAKNTVYLQMNSLKPEDTAVYYCAADYSVFYDEDYWGQGTQVTVSS | low polyreactivity
QVQLVESGGGLVQAGVSLRLSCAASGRTFSSYAMGWYRQAPRKERELVPGISWRGGRTYYADSVKGRFTISRDNGKNSVYLQMNSLKREDTAVYYCNKVYRTYYGDYRFSGIPRYDYVGQGTQVTVSS | high polyreactivity
QVQLVESGGGLVQAGGSLRLSSAASRRIFSEYAMGWNRPEPGKERELVAAISKSGGRTYYADSVKGRFTISRDNAKNTVYFQMNSLKPEETAVDYCNARAVYPAGYAYDYWGQGTQVTVSS | high polyreactivity
QVQLVESGGGLVQAGGSLRLSCAASGFTFVWYAMGWYRQAPGKERELVAAISRRGTRTYYADSVKGRFTISRDNAKNTVYLQMNSLKPEDTAVYYCAASPWGGYGYWGQGTQVTLSS | high polyreactivity
QVQLVESGGGLVQAGGSLRLSCDASGSTFFTYAMGWYRQSPGKERELVAAITRGGSTYYADSVKGRFTISRDNAKHTVYLQMNSLKPEDTAVYYCNVDPFTRQNHGNYWGQGTQVTVSS | high polyreactivity
QVQLVETGGGLVQAGGTLRLSCAPSGYTIYFYALGWDIQAPGTERELVAAISGSGGRTYYADSVKGRFTISRDNAKNTVYLQMNSLKPEDTAVYYCAARKYKRIYRISSGIGYYWGQGTQVTVSS | high polyreactivity
QVQLVESGGGLVQAGGSLRLSCAASGFPFPDYAMGWYRQAPGKERELVAGISSTGDSTYYADSVKGRFTISRDNAKNTVYLQMNSLKPEDTAVYYCNAAQERPIIILFSKYDYWGQGTQVTVSS | low polyreactivity
QVQHVESGGGLVQAGGSLRLSCAASGQIYNQNAMGWYRQAPGKERELVAAISYRGGSTYYADSVKGRFTISRDNAKNTVYLQMNSLKPEDTADYYCAAARSGSGGKQFDHGFNYWGQGTQVTVSS | high polyreactivity
QVQLVESGGGLVQAGGSLRLSCAASGRTFRVYAMGWYRQAPGKERELVAAITRGGSTYYADSVKGRFTISRDNAKNTVYLQMNSLKPEDTAVYYCATYSHALRYDYWGQGTQVTVSS | high polyreactivity
QVQRVDSGGGLVQAGGSLRLSCAASGSTFPGYAMGWYRQAPGKERELVAAISKRGGSTRYADSVKGRFTISRDNAKNTVYLQMNSLKPEDTAVYYCAASYSYSGSGGGYWGQVTQVTVSS | high polyreactivity
QVQLVESGGGLVQAGGRLRLSCAASGLTFEYNAMGWYRQAPGKERELVASISSGGGTNYADSVKGRFTISRDNAKNTVYLQMNSLKPVDTAVYYCATDNYDWSCWAFRGYWYDYWGQGTQVTVSS | low polyreactivity
QVQLVESGGGLVQAGGSLRLSCAASGSTFNKYAMGWYRPAPGKERELVAVITKRGGSTYYADSVKGRFTISRDNAKNTVYLQMNSLKPEDTAVYYCAASSLYYGYDYWGQGTQVTVSS | high polyreactivity
QVQLGESGGGLVQAGGSLRLSCAASGIIIFLYAMGWYRPAPGKEREFVAAINYSSGSTYYADSVKGRFTISRDNAKNTVYLQMNSLKPEDTAVYYCAADPVHRYPGTGGYWGQGTQVTVSS | low polyreactivity
QVQLVESGGGLVQAGGSLRLSCAASGTTFVWYAMGWYRQAPGKERELVAAISLSGGSTYYADSVKGRFTISRDNAKKTVYLQMNSLKPEDTAVYYCAAETYAYLFHTYDYWGQGSQVTVSS | low polyreactivity
QVQLVESGGRIVQAGGSLRLSCAASGSTFYPYAMGWSRPAPGKEGQFVAAITWSGGSTYADSVKGRFTISRDNAKNTVYLQMNSLKPEDTAVYYCAAQPFVIEGGYRGDYWGQGTQETVSS | low polyreactivity
QVQLVESGGGLVQAGGSLRLSCAASGRIFTGNAMGWYRQAPGKERELVAAISRRGTRTYYADSVKGRFTISRDNAKNTVYLQMNSLKPEDTAVYYCATVLYKAYNDYGYWGQGTQVTVSS | high polyreactivity
QVQLVESGGGLVQAGGSLRLSCPASGRIFLGNLMGWYRQAPGKERELVAAISWSGGSTYADSVKGRFTISRDNAKNTVYFQMNSLKPEDTAVYYCAKDEGTFYNSYDYWGQGTQVTVSS | low polyreactivity

Sequence | polyreactivity (PSR sort gate)
QVQLVESGGGLVQSGGSLRLSCAASGSTFLWYAMGWYRPAPGKERELVASISRGGGTDYADSVKGRFTISRDNAKKTVYLQMNSLIPEDTAVYYCAATGVYRYDHWGQGTQVTVSS | low polyreactivity
QVQLVESGGGLVQAGGSLRLSCAASGRTFRYYVMGWYRQAPGKERELVATITSNGDSTYYADSVKGRFTISRDNAKNTVYLQMNSLKPEDTAVYYCAVRWRDYRGSYRGFEYWGQGTQVTVSS | high polyreactivity
QVQLVESGGGLVQAGGSLRLSCAASGLTFHRYAMGWYRPAPGKERELVAGISWSGASTYYADSVKGRFTISRDNAKNTVYLQMNSLKPEDTAVYYCAARRYYKYDWGQGTQVTVSS | high polyreactivity
QVQLVESGGGLVQAGGSLRLSCAASGRTFVPYAMGWYRQAPGKERELVAAITSSGGSTYYADSVKGRFTISRDNAKNTVYLQMNSLKPEDTAVYYCNALDGTLRTIYDYWGQGTQVTVSS | high polyreactivity
QVQLVESGGGLVQAGGSLRLSCAASGRIFSVNAMGWYRQAPGKERELVAAITPGASTNYADSVKGRFTISRDNAKNTVYLQMNSLKPEDTAVYYCAAGWVSFEDWVLGSYYEFDYWGQGTQVTVSS | low polyreactivity
QVQLVESGGGLVQAGGSLRLSCAASGRIFDQYAMGWYRQAPGKERELVAAITSGGSTYYADSVKGRFTISRDNAKNTVYLQMNSLKPEDTAVYYCAAEWQWYGYVLYKYYYWGQGTQVTVSS | high polyreactivity
QVQLVESGGGLVQAGGSLRLSCAASGFTFRWYTMGWYRQAPGKERELVASIDWSGGSTYYADSVKGRFTITRDNAKNTVYLQMNSLKAEDTAVYYCNAGSDIFWSASTYGYWGQGTQVTVSS | high polyreactivity
QVQLVESGGGLVQAGGSLRLSCAASGSIFGPYAMGWYRQAPGKERELVAANTWTGGRTYYSDSVKGRFTISRDNAKNTVYLQMNSLKPEDTAVYYCAVRHRYTRAYWGRDYWGQGTQVTVSS | low polyreactivity
QVQLVESGGVLVQAGGILRLSCAASVRTFYRYAMGWYRQAPGKERELVAAITSGDRTNYADSVKGRFTMSRDNAKNTVYLQMNSLKPEYTADYYCAARRDYWAPYYYWGQGTQVTVSS | high polyreactivity
QVQLVESGGGLVQAGGSLRLSCAASGLIFVNDMGLYRQAPGKEREFVAAITYSTGSTYYADSVKGRFTISRDNAKNTVYLQMNSLKPEDTAVYYCAKDRSGHGTERDYWGQGTQVTVSS | low polyreactivity
QDQLVESGGGLVQAGGSLRLSCAASGRTFWRYAMGWYRQAPGKERELVAAITSGGGSTYYADSVKGRFTISRDTAKNTVYLQMNSLKPEDTAVSYCNRAGRGRSFKGDYWGQGTQVTVSS | high polyreactivity
QVQLVESGGGLVQAGGILRLSCAASGLIFSYNTMGWYRHAPGKERELVAGNTSSGSTYYADSVKGRFTISRDNAKNSVYLQMNSLKPEDTAVYYCAAEWDDGRSWYWYYLVGFEYWGQGTQVTVSS | high polyreactivity
QVQLVESGGGLVQAGGSLRLSCPASGRTFYKNAMGWYRQAPGKERELVAAITSGGSTNYADSVKGRFTISRDNAKNTVYLQMNSLKSEDTAVYYCAAQQFPYYRSRYSYINKYDYWGQGTQVTVSS | high polyreactivity
QVQLVESGGGLVQAGGSLRLSCAASGFIFARYAMGWYRQAPGKERELVASITRRGGSTYYADSVKGRFTISRDYEKITVYLQMNSLKPEDTAVYYCARPNLLSGDYWGQGTQVTVSS | high polyreactivity
HVQLVESGGGLVQAGGSLRLSCASSGSIFWANAMGWYRQAPGKERELVATITSGGRTYYADSVKGRFTISRDNAKNTVYLQMNSLKPEDTAVYYCARVPPQYRWGRRLVYVHVDYWGQGTQVTVSS | low polyreactivity
QVQLVESGGGLVQAGGSLRLSCAASGRTFYSNAMGWYRQAPGKERELVAGINIGGGSTYYADSVKGRFTISRDNAKNTVYLQMNSLKPEDTAVYYCAARRWGAYRHGYWGQGTQVTVSS | high polyreactivity
QVQLVESVGGLVQAGGRLRLSCAASGITFEPYAMGWYRPAPGKEREFVADITWSGGSTYYADSVKGRFTISRDNAKNTVYLQMNSLKPEDTAVYYCAADGWTSYWSDYWGQGTQVTVSS | low polyreactivity
QVQLVESCGGLVQAGGSLRLSCSSSGRIFRGNAMGWYRQAPGKERELVAAILTGVTTYYADSVKGRFTISRDNAKNTVYLQTNSLKPEDTAVYYCAAERPSRRSGYEYWGQGTQVTVSS | low polyreactivity
QVQLVESGGGLVQAGGSLRFSCAASGFTFYLYTMGWYRQAPGKDRELVAAINYSGGTTYYADSVKGRFTISRDNAKNTVYLQMNSLKPEDTAVYYCAATVGYSYNPRKNYYWGQGTQVTVSS | low polyreactivity
QVQLVESGGGLVQAGGSLRLSCAASGFTYVYNAMGWYRQAPGTERELVAAISSGGSTYYADSVKGRFTISRDNAKYTVYLQMNSLKPEDTAVYYCARRSSWFKYEYWGQGTQVTVSS | low polyreactivity
QVQLVESVGVLVQAGGSLRLSCAASGRTFYRNAVGWYRQAPGKERELVAAISRSGTRTYYADSVKGRFTISRDNATNTVYLQMNSLKPEDTAVYYCNALRVDGGDYWGQGTQVTVSS | high polyreactivity

Reference: the nanobody polyreactivity screen of Harvey et al. (2022)
